Reference: the domain aggregation screens of Martell et al. (2025)

Assay: soluble fraction after stress (log2 fold change); higher = more stays soluble; pooled small domains, quantitative proteomics
Conditions: stress: 75 degC
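Note: 20 min heating vs room temperature control held 20 min.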

Row | Sequence | soluble fraction (log2)
1 | HMRHEDLSPAQKAAALVVAVGSENAAQVLRHLSEEEVEILAGEVARLGEVDPDVVDSVMREVYEQMMGH | -0.642
2 | HMRHKSNRRLTAAHQIEQQIQKLLMENTMEAKELKESLNFAAKDIDTVLSWLVDKDKVRINAINQYYWT | -0.434
3 | HMRHRITEKDKQFRIGQQVWHSEYGKGMVLSVDGIGSSARLTVSFVSGKLAKIIGTFVSTEP | -3.47
4 | HMRIETLESLANRLAYKAYRTGRKVELEPMNPFERRVIHTALQNSKYATTESEGEDMNRHIVIVPKEGG | -0.152
5 | HMRILGIDPGSVVTGYGVIDKSGNYLRHVLHGEIKPHKGYLLSEVLMDIFSKLSAVIVETNPQSV | 0.271
6 | HMRINIVKSKNAEQLYIIHSYRINGKNTSKIYKKLGTMADLLPLHNHDRDQVLAWAKEQARLATEQYDQEN | -2.79
7 | HMRIQLNFSDQLLDDVMSEALKHIDRKSQEHHIEKQMDDEFMLVYIDARLIIQVIVNIINNAIKY | 0.168
8 | HMRITEGEIVEIQEGDNRALVGVGEKLEGIISLDEIRGADGKLLFNVGDKITVMVMGHYNERPK | 0.244
9 | HMRITRREQQVLHLLAMGMTTREIAGHINLTERTVRNRISNLRDKLGAQTASQLLAKAVAQGLIEP | -2.69
10 | HMRIVSGRESMLGRTVVVADWAGERGHVVVDGERWNAVASTPLAAGRRARIVGIDGLTLSVSPDDKP | 0.0293
11 | HMRKAERHLLIKQVIDEFTIRTQEELLAKLSDYGVNATQATISRDIRDLKIVKAPDENGISRFVFF | -1.73
12 | HMRKGDDRLRAQVDEYISKQGNNTFNYKQVAHAINATSPISQRAVALYLAELAFDGDLLETAPGRYKSPSR | -0.0636
13 | HMRKIKDVLRLKLHAGLSHERVAASLNISKGVVAKYTSLAAAAGLDWPTVERLSEAALERRLV | -0.181
14 | HMRKIKEVLRLKFETGFSHERIAAAVGVSKGAVTKYVQRAVAAGLGWPLAPERDDAALEALLFPH | 0.842
15 | HMRKLDQRLAGLLLGKGRLVKATHQQLADELGSVREMVSRLLKGFAEHDLVRMSREQIEIVDAAGLRKLAD | -2
16 | HMRKPDLTSVRTLIRSVSKLARHLKISPNGIYRWISVNRIPGAHVVKVANYYDVEIRDLVHLTGSD | -1.49
17 | HMRLADHVVEKLLALVQDRGLQPGQKLPAERQLAEELGVSRTSVREAIQKLTSQGVLSARRGDGTYLQS | 0.0739
18 | HMRLARPLTPTEERVLRLLASDMSNAKIGEVLGIRLPTVKSHVSHIMQKLGVTSRAKARTAAQQLGI | -1.21
19 | HMRLDPENFYIRAVTYYRNGDWQRALSQLDEAIKLGTAIEYPALQARIYLEQGMRDEFIAASEK | -1.86
20 | HMRLDVALRGVLLDGDPTQSRAFVLVSGTTSTYRLGETVQSAELVAINADTITLRTETGLHVIGFDGLI | -2.77
21 | HMRLEYLVDVEEISIKEYLMLLGLSRRLARKIKLYGKMYINHQEAFNYHLVKKGDLLTIEFDE | -2.85
22 | HMRLIDVFELSPKNRTVLQLYYYEGYSVTEISKILKISVNGVTSRLSRARSKLKLEMEAAENE | -0.577
23 | HMRLMLITPTEFDEAAEIADNLKDRRAVLMNVEKTDNETARRLIDFLSGVVYALGGKIMRISAQAYVLT | 0.00546
24 | HMRLPNGYGGVTKLSGRRRKPYMVRKTIGWHIDEKTDKKVQDYVVIGYAATKSEALQMLADYNNNPFDV | -2.93
25 | HMRLSVVDLQDSLRGLEYPAGKGDLINHAREHNASADVIAVLEQFSERTYRSAADVGEEFGRV | 0.152
26 | HMRLTIAQLSEKTGVPERTIRYYIDRGLVPSAHGERRGAWYDTVHLEPLLRIQQWREAGLSLEAIADLLR | -1.72
27 | HMRMLLEERLDEIVKIVNERGSISNQELVKMFGASESTIRRDITTLANDNRVIRVHGGAMSVVS | -0.333
28 | HMRMTLKNKVEDIVHILRKDKQTSLSAILGDNTDRIQTIVVFLAILELVKQHLIKTDQNANFGDINLFPED | -0.000181

Row | Sequence | soluble fraction (log2)
29 | HMRNLFWTEAQNAQNELNAMRINALTQSIRRIEPNFRGIPSLRDPNRPIPNEEVRDYENYLNRILP | 0.0375
30 | HMRNMRKLWIARINAAARMNDISYSKLMHGLKLANVEINRKMLSEMAIDDPKSFTALVETAKKALNG | -1.49
31 | HMRNPLYAQVADYVMQQIAAGTYRPHQAIPTEWQLAKKLEVSQGTVRKGLDELVFKQILYRQQGVGTFVAD | -1.31
32 | HMRPAAELGLPHAPKHFIQYLTEDDRPQVLKDVDYEGGMGVSIGRLREDSIFDWKFVGLAHNTL | 0.0714
33 | HMRPADTAAMLKYLSSGAVKGIGGALAGRIIEAFGDESIKVIEEDPARLATVKGITLKKAKEISEEMQRVN | -0.0169
34 | HMRPEFVVALSGADLGKLHRLYELGEVLSREDDAEGVTHAVLRVPDKHEHAFHAEFPQARPM | 0.879
35 | HMRPIDEVFGFFSRPENLTVITPSNLHFNILTPRPLEMKQGAVIDYTIKIFKVPIHWRTLITTYDPPFKFV | 0.059
36 | HMRPILTLEEAKAKALAHAGLKADQVTFTEAKLDWDDGKQVYDIEFYTADFKEYDYEIDAKTGEVLEVDY | -0.466
37 | HMRPKAIFVDVDDTLVRSVGQTRIPMPAVIAHIRRLHDAGHQLYLWSSGGADYARASAEELGIGQYFQAFL | -0.268
38 | HMRPRWTEQEVERAKAIKMIYPNAYRLESSDVFVQVWSKEEILLAHVEVDMFPSLRPGQPVELDEIIG | -1.19
39 | HMRPTAWDQISDWLDRHGSIANADVVRIAGLDTLKASKLLTTWREQGLLEPLPGRGKRNMAYVRAI | -0.887
40 | HMRPTVNETQIREVFRSILGREVDPEGLRHYLGQAAKGWSIDQIRADVNNSQEAHQRRAELARQAEELK | -0.0425
41 | HMRQDEKTLLYWIAGHLKREGRQITERSARHLVEQVGTDMENLSREMEKLIAYTMGRTEITGQDIDDI | -1.77
42 | HMRQEIIEDSRKLLEESLKRYDLTYQEFIDTLKSKNMNVESTLINIIKNQSSLDLVLRNLGLIAP | -0.0293
43 | HMRQISDPTALASMVDKVIEDNPSAVADYRRGESKALGFLIGRVMQSSGGKANPKMIRGLLVKNLES | -0.284
44 | HMRQMIIIMQKQAAASSVAAVVEFIRSKGLREHISPGAERTIIGAVGDERVFLPQELESLPQVERAIRVL | -3.67
45 | HMRQPAAVEYSTFLDWVHASQVERVVFEGDTIRGVRVTGEGFVTYSPETDNTALIGELKKSRVQISATAP | -0.508
46 | HMRQQAFWALVPEERDVLDETGAPLFRIGPTAWALVIEDRGEVFVVRDEDGRVGYLHEVDGVTR | -1.57
47 | HMRQQLAEILQKAVDNLPEAQRLVWLLRDKSDMTFKEIAEDLQLTEANVRVLLHRARLKLLAVINQYEE | -1.66
48 | HMRQYKEMPYRLFLIHLGKGLVDEVELSDKAKLTGKLKNGKIFITDNPRTENFKEQLLLHDVKVKEG | -0.329
49 | HMRQYTPEQLETAVLVLEEVRQGRRLDRALRSHPMPDGRLIAKHVLVAAYRKLVAEGTWKEDPEFLSRIRM | -2
50 | HMRRADRLLQLIQILRRHRRPVTGDVMARELEVSLRTVYRDIATLTIEGVPIRGEAGVGYVLGEGY | -2.41
51 | HMRRDEDLAHGRELLEKELRKQGLEVSENLKQDKLLEGAKRLGFLEAEDLVVAVGSGKVSAGMAVGRIIG | -0.114
52 | HMRREKVLIKLAENLASKVLRTKKSIELEPMTPYERKVIHTTIENISGVKSWSEGENLQRHLIVALDE | -1.5
53 | HMRRGPLTPDDFVLDMRVVHPRYGVGRIVALSGSGESRKATVDFGGSIGRMKFVLSQSPLKP | -1.34
54 | HMRRHLLEMNDAIGRLGRLISEDPADRDVAEVIWAALRGMVMGQMIMNEPIDWQRERRTLVEMAIGR | 0.0485
55 | HMRRIADVVPEQLTREEAEELLETLAEQGEIHEEQALLARYILEQSLQGVAPEVEPLIRAKLLAGILMVY | -2.18
